Article PMC11470055

Target: AP-DT/AA-LRRTM2 (UniProt O43300)
Assay: immunostaining of cells or tissue; Nrxn-binding assay: live COS-7 cells expressing biotinylated AP-LRRTM2 (WT or mutants), BirA-ER and EGFP incubated 20 min with Nrxn solution (2 µg Nrxn-1β-Fc + 1.3 µg AlexaFluor647 anti-human Fc), then labelled with mSA-ATTO565 in Tyrode's solution (2 mM CaCl2, pH 7.4) and imaged live; Nrxn1β-Fc surface intensity normalised to AP-LRRTM2 expression

UniProt O43300, sequence (O43300 34-516 D259A/T261A): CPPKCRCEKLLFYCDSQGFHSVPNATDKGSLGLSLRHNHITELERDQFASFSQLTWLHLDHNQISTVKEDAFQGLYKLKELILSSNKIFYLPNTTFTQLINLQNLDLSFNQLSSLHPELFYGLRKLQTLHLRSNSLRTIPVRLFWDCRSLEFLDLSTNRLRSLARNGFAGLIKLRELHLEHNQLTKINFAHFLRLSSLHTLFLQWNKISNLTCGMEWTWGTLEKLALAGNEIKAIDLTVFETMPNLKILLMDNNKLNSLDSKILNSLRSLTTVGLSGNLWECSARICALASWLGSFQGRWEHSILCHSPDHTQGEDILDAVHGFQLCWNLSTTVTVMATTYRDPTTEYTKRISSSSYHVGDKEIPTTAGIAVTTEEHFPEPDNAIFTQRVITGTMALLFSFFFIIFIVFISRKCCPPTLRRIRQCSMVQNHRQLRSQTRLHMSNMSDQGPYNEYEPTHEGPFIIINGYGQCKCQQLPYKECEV

## Nrxn1β-Fc (-SS4) (Fc fusion)
  percent loss of Nrxn1β-Fc binding against AP-LRRTM2-WT: 50%
